The values below come from patent US20060009380A1 (L OREAL, published 2006).

The target in this assay is T1, transglutaminase 3 (human, UniProt Q08188 2-693, limits assumed).
T1 sequence (looked up): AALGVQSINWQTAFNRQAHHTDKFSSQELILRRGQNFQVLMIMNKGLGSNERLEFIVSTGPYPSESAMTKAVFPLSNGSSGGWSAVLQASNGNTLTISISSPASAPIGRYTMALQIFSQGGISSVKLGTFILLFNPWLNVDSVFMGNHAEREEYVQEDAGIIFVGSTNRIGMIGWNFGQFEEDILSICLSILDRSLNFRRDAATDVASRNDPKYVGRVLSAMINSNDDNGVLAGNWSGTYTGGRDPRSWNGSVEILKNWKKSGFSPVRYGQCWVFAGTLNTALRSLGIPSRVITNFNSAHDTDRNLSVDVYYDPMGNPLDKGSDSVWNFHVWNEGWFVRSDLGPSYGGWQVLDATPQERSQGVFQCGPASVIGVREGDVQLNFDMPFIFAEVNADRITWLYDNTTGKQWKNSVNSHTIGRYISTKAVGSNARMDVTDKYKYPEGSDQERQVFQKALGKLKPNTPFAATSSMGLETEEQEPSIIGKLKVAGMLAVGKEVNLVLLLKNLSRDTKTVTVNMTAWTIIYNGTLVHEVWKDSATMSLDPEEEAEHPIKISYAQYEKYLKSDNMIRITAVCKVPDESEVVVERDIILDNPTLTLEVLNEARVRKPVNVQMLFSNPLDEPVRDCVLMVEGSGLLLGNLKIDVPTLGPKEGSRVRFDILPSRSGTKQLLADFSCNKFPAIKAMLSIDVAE
The assay can be described thus: affinity chromatography: CLSP on CNBr-sepharose, human epidermis extract loaded with calcium chloride, eluted with EDTA, held protein sequenced. The method, then:
The coupling efficiency was 0.95 mg of polypeptide per milliliter of balls. Human epidermis (0.83 g of abdominal skin obtained from plastic surgery and 100 g of plantar stratum corneum) was homogenized with polytron in 10 ml and 120 ml respectively of 10 mmol of Hepes buffer, pH 7.4, containing 150 mmol of sodium chloride, 0.1% (weight/volume) of triton X100 and a mixture of protease inhibitors (Complete™ EDTA-free of Roche Molecular diluted with […] of depepstatin).
The suspension is then centrifuged at 10,000 g for 10 minutes at 4° C. The supernatant is filtered at 0.22 and adjusted with 2.5 mmol of calcium chloride before passing at ambient temperature through the affinity column. The columns are then washed with 10 volumes of 10 mmol Hepes buffer, pH 7.4, containing 150 mmol of sodium chloride, 0.1% (weight/volume) of triton X100 and a mixture of protease inhibitors. The elution is carried out by using the same buffer that contains 5 mmol of EDTA instead of 2 mmol of calcium chloride.
The eluted proteins are subjected to a denaturing gel electrophoresis (SDS-PAGE) and after migration, they are colored with silver with a silver coloration kit of the Amersham Pharmacia Biotech Company and according to the recommendations of the manufacturer.

B1: CLSP (calmodulin-like skin protein), the polypeptide of the invention (other)
chain: AGELTPEEEAQYKKAFSAVDTDGNGTINAQELGAALKATGKNLSEAQLRKLISEVDSDGDGEISFQEFLTAARKARAGLEDLQVAFRAFDQDGDGHITVDELRRAMAGLGQPLPQEELDAMIREADVDQDGRVNYEEFARMLAQE
notes: also called skin protein similar to calmodulin
Regarding B1, the binding result is listed as “binds”.
